Experimental data reported in patent publication US5756343, “Cell stress transcriptional factors” (The United States of America as represented by the …, dated 1992).

How the values were obtained:
[1] = target: T1, Drosophila HSF full length (pHSF WT) (Drosophila melanogaster) (UniProt P22813); conditions: in vitro transcription, Drosophila embryo extract; scale: fold transcription vs template lacking HSEs
T1 sequence: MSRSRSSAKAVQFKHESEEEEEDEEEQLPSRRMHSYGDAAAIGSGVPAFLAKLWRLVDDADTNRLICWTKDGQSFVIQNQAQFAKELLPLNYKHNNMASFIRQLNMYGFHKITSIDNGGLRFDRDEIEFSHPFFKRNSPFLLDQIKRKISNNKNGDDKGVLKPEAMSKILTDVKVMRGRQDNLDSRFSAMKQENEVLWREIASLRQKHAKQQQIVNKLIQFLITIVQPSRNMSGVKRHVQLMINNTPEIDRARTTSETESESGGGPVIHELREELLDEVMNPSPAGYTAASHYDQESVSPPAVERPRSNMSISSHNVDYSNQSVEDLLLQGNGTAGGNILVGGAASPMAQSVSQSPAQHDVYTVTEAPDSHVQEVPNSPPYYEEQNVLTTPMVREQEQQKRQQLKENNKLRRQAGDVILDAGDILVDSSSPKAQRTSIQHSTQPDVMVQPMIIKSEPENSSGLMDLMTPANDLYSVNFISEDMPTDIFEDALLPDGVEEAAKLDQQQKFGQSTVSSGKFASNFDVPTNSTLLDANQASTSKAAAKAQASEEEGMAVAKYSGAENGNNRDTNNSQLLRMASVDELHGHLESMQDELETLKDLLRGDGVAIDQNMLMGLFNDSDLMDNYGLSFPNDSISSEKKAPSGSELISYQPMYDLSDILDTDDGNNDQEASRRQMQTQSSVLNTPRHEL

[2] = target: human HSF (HuHSF) (Homo sapiens) (UniProt Q00613); conditions: in vitro transcription, Drosophila embryo extract
[3] = target: T2, Drosophila HSF expressed in Xenopus oocytes (Drosophila melanogaster) (UniProt P22813); assay: EMSA; conditions: oocytes 36 C 10 min vs 18 C
T2 sequence: T1 sequence

[4] = target: the molecule itself; assay: self-association: pore exclusion limit electrophoresis on a nondenaturing gradient gel, purified HSF from E. coli
Method: The gel was stained with Coomassie Blue. […] (B) Pore exclusion limit analysis of the HSF:^32P-HSE complex. 3 µl of Drosophila SL-2 cell cytosol (lanes 1,2) and 0.5 µl of an extract *E. coli* expressing HSF (lanes 3,4) were heat shocked (+) in vitro at 34° C. or incubated at 0° C. (−) for 10 min. The samples were incubated for 10 min with ^32P-labeled HSE tinder standard gel shift conditions, and electrophoresed on a nondenaturing, 3–12% polyacrylamide gradient gel until the limit of migration. The gel was stained with Coomassie Blue, dried and subjected to autoradiography. The positions of marker proteins are indicated. (C) Glutaraldehyde cross-linking of cloned HSF. Purified HSF (2 µg/10 µl) was treated for 5 min at room temperature with glutaraldehyde as indicated. After quenching, about 1 µg of cross-linked HSF was separated on a 4–6% SDS polyacrylamide gel, and silver stained. The minor polypeptides below the 105 kD HSF protein probably represent degradation products. […] Cross-linked products were analyzed by SDS gel electrophoresis as above.
EXAMPLE 5 Recombinant Drosophila HSF Expressed in *E. coli*. Associates as a Hexamer in Solution The apparent molecular mass of recombinant HSF, purified from *E. coli* extracts, was determined to be about 105 KD by SDS polyacrylamide gel electrophoresis (see FIG. 6).

Drosophila HSF 1-241 = target: T3, Drosophila HSF 1-241 (Drosophila melanogaster, UniProt P22813 SEQ:1-241); assay: footprint; conditions: tags: E. coli BL21(DE3) extract; label: 32P 5' end
T3 chain: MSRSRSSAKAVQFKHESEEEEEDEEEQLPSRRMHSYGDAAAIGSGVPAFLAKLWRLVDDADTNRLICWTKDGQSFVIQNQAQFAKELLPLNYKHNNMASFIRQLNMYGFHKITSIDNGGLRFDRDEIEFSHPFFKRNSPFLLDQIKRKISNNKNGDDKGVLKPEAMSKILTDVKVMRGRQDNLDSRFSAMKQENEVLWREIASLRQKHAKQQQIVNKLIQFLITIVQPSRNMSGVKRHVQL
Source text: (§1) Figure 7A: FIGS. 7A, 7B, and 7C represent the deletion analysis of HSF. (A) Schematic drawing of full-length HSF open reading frame (pHSF WT) and three deletion mutants PHSF 1-367, 1-241, and 1-163. All numbers refer to amino acid positions. The open bars represent HSF coding sequences; the shaded regions A–D represent sequences conserved between Drosophila and yeast HSF. The solid boxes indicate the φ10 promoter (T_7), the Shine-Delgarno (SD) sequence, and the transcription terminator (T) of the expression vector. (B) SDS polyacrylamide gel analysis of wild-type and mutant HSF polypeptides. Mutants were expressed in BL21 (DE3) in the presence of ^35S-methionine (20 µCi/ml). 0.1 ml of culture was precipitated and the pellet was denatured at 100° C. in 10 µl of Laemmli sample buffer. Samples were electrophoresed on a 15% polyacrylamide gel and visualized by fluorography. The arrows pointing left indicate HSF polypeptides. A 26 kD protein (arrowhead) was also labeled in all samples, including *E. coli* transformed with the expression vector alone. (C) DNase I protection analysis of HSF mutants. A labeled fragment from the hsp70 promoter was incubated with the indicated amounts of wild-type or mutant HSF proteins. Footprinting reactions were performed essentially as described in FIG. 3C. Figure 7B: Figure 7C: […]

Drosophila HSF 1-367 = target: T4, Drosophila HSF 1-367 (Drosophila melanogaster, UniProt P22813 SEQ:1-367); assay: footprint; conditions: tags: E. coli BL21(DE3) extract; label: 32P 5' end
T4 chain: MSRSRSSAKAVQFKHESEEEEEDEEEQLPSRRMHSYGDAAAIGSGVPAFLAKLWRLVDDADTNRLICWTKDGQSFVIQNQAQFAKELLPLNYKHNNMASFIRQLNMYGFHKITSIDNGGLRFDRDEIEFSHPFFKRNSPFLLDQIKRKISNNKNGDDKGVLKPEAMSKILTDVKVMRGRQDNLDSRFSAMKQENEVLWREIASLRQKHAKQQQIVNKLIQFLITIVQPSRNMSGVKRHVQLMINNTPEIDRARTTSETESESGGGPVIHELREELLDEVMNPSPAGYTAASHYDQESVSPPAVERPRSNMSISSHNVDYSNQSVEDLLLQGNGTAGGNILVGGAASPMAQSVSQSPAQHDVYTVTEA
Source text: as §1

Drosophila HSF 1-163 = target: T5, Drosophila HSF 1-163 (Drosophila melanogaster, UniProt P22813 SEQ:1-163); assay: footprint; estimated from protein concentration for about 50% binding; conditions: tags: E. coli BL21(DE3) extract; label: 32P 5' end
T5 chain: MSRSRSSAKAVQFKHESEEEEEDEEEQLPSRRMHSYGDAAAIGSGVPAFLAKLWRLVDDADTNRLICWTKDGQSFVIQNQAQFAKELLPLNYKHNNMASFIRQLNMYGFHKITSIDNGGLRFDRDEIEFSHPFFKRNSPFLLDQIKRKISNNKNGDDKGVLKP
Method: as §1, with “All” for “Figure 7A: FIGS. 7A, 7B, and 7C represent the deletion analysis of HSF. (A) Schematic drawing of full-length HSF open reading frame (pHSF WT) and three deletion mutants PHSF 1-367, 1-241, and 1-163. All”

human HSF (HuHSF) (Homo sapiens), sequence (Q00613 whole entry): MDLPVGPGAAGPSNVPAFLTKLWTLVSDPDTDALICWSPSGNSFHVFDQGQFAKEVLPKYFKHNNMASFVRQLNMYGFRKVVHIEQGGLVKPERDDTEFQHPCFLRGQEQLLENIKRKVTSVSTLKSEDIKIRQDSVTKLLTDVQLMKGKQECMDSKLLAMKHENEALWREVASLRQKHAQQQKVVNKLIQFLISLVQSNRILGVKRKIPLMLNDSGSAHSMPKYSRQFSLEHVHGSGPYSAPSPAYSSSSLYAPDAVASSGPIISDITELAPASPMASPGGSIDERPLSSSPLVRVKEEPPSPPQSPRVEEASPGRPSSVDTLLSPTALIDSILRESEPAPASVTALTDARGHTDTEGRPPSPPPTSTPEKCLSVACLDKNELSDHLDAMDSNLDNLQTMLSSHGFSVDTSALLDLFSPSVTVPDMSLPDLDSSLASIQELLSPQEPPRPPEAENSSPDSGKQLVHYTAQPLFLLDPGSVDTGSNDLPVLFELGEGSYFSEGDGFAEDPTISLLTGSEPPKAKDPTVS

## phsp70(-50)HSE2 template
[1]
  activity: 7
[2]
  activity (fold transcription stimulation): 6

## synthetic HSE with three -GAA- repeats in alternating orientation
[3]
  binding signal (fold increase on heat shock): 5

B1: recombinant Drosophila heat shock factor (HSF), full-length, expressed in E. coli (pHSFWT) or translated in vitro in rabbit reticulocyte lysate (other)
chain: T1 sequence
[4]
  binding result: binds

B2: hsp70 promoter (-100 to +10 printed) (dsDNA)
DNA 1: AAACGGCACACTGTTCTCGTTGCTTCGAGAGAGCGCGCCTCGAATGTTCGCGAAAAGAGCGCCGGAGTATAAATAGAGGCGCTTCGTCGACGGAGCGTCAATTCAATTCA
DNA 2: TGAATTGAATTGACGCTCCGTCGACGAAGCGCCTCTATTTATACTCCGGCGCTCTTTTCGCGAACATTCGAGGCGCGCTCTCTCGAAGCAACGAGAACAGTGTGCCGTTT
Drosophila HSF 1-241
  binding signal: ≤ 2 fold difference vs full length
Drosophila HSF 1-367
  binding signal: ≤ 2 fold difference vs full length
Drosophila HSF 1-163
  binding signal: 50 fold lower affinity vs full length
